T1: Fusion protein of extracellular domain of human TIGIT and mouse IgG2a Fc fragment (human TIGIT ECD-mFc) (human)
T1 construct: The entry includes the signal peptide (limits not recoverable) and the mouse IgG2a Fc
T1 chain: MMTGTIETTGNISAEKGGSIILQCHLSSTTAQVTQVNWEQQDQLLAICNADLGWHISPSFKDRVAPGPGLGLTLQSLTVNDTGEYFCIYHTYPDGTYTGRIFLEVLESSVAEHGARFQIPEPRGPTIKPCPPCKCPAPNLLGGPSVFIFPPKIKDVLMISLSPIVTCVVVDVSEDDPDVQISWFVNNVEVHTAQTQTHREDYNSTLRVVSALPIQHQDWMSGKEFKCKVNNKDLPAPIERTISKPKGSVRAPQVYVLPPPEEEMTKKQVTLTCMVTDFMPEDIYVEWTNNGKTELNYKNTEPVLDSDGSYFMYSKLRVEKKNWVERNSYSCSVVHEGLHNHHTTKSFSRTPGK

T2: human PVRIG-mFc protein (Acro, PVG-H5253) (human, UniProt Q6DKI7 41-171, limits assumed)
T2 construct: bought reagent; also called PVRIG-ECD-mFc
T2 sequence (looked up): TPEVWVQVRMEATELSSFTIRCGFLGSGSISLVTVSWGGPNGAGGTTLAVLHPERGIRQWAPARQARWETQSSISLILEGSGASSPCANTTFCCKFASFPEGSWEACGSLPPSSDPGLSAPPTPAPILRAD

T3: human PVRIG-his (AcroBiosystems, Cat NO. PVG-H52H4) (human, UniProt Q6DKI7 41-171, limits assumed)
T3 construct: treated as the same protein; also called human PVRIG-His protein; Human PVRIG-His, Acro C227P1-9ARF1-T4
T3 sequence (looked up): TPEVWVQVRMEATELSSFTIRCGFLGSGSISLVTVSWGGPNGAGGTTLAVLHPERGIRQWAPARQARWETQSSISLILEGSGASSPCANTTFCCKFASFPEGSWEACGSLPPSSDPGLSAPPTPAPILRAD


Tests used:
[1] = biological target: T4, Fusion protein of extracellular domain of human TIGIT and human IgG1 Fc fragment (human TIGIT ECD-hFc) (human); assay: blocking of TIGIT ECD-hFc binding to CHO-K1 CD155 cells
T4 construct: The entry includes the signal peptide (limits not recoverable) and the human IgG1 Fc
Summary of the method: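 IC50 values come from inhibition curves in a cell-based ELISA using CHO-K1 CD155 cells. Antibodies premixed for 0.5 h with human TIGIT ECD-hFc (working concentration 30 ng/mL) were added to the fixed, blocked cells for 1.5-2 h at 37° C. Bound TIGIT was then detected with HRP secondary antibody and TMB at OD450 nm.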

[2] = biological target: T1, Fusion protein of extracellular domain …; assay: FACS; blocking of TIGIT ECD-mFc binding to CHO-K1 CD155 cells
[3] = biological target: T2, human PVRIG-mFc protein (Acro, …); assay: competition FACS; blocked: human PVRIG-mFc binding to CHO-K1-CD112 cells
Summary of the method: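 Antibody dilutions premixed with human PVRIG-mFc (working solution 1 μg/mL, four-fold concentration) for 30 min at 4° C, then incubated with CHO-K1-CD112 cells 30 min at 4° C. Bound PVRIG-mFc detected by PE anti-mouse IgG Fc flow cytometry; IC50 and AUC from four-parameter fit of MFI versus antibody concentration.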

[4] = biological target: T3, human PVRIG-his (AcroBiosystems, Cat …); assay: competition ELISA on coated human PVRIG-his; blocked ligand human PVRL2-mFc
Summary of the method: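 Wells were coated with 0.5 μg/mL human PVRIG-his. Bound ligand was read by HRP/TMB absorbance, and IC50 came from a four-parameter logistic fit of OD against antibody concentration.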

T4 sequence (chain, as listed by the source limits assumed): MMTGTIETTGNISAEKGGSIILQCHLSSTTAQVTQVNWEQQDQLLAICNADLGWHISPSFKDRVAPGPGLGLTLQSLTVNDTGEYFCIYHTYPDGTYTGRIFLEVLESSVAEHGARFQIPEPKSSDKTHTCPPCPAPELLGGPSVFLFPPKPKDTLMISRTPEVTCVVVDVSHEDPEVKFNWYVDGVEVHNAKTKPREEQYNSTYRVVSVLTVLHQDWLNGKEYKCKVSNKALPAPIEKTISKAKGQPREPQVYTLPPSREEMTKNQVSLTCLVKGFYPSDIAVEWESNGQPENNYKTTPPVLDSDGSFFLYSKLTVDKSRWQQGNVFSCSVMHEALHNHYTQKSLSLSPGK

| Binder | IC50 [1] [nM] | IC50 [2] [nM] | IC50 (read off the curve) [3] [nM] | IC50 (read off the curve) [4] [nM] |
| --- | --- | --- | --- | --- |
| TIGIT-002-H4L3 (antibody, V domains shown, Humanized anti-TIGIT antibody) VH: EVQLQESGPGLVKPSETLSLTCAVSGYSITSDSWNWIRQPPGKKLEYIGYISYSGNTYYNPSLKSRVTISRDTSKNQFSLKLSSVTAADTAVYYCARLDFSNYGGAVDYWGQGTTVTVSS VL: DIVMTQSPDSLAVSLGERATINCKASQNVRTAVAWYQQKPGQSPKLMIYSASYRYTGVPDRFSGSGSGTDFTLTISSLQAEDVAVYYCQQYYTTPWTFGGGTKVEIK | 0.354 | 0.492 |  |  |
| TIGIT-005-H2L1d (antibody, V domains shown, Humanized anti-TIGIT antibody with NG-site mutation in VL) VH: EVQLVQSGAEVKKPGASVKVSCKASGYAFTNYLIEWVRQAPGQRLEWMGVINPGSGGTNYKEKFKGRVTITADKSSSTAYMELSSLRSEDTAVYYCARGEYFFFDYWGQGTTVTVSS VL: DIVMTQSPDSLAVSLGERATINCKASQHVSNAVAWYQHKPGQSPKLLIYSASYRYTGVPDRFSGSGSGTDFTLTISSLQAEDVAVYYCQQHYNTPHTFGGGTKVEIK | 0.376 | 0.467 |  |  |
| TIGIT-006-H5L3 (antibody, V domains shown, Humanized anti-TIGIT antibody) VH: EVQLQESGPGLVKPSETLSLTCAVSGYSMTSDYWNWIRQPPGKKLEYIGYISYSGRTYYNPSLKSRVTISRDTSKNQFSLKLSSVTAADTAVYYCARGDYSNYGGAMYDWGQGTTVTVSS VL: DIVMTQSPDSLAVSLGERATINCRASQGVSTTIAWYQQKPGQSPKLLIYSASYRYTGVPRFSGSGSGTDFTLTISSLQAEDVAVYYCQQYYSSPFTFGGGTKVEIK | 0.587 | 0.458 |  |  |
| PVRIG-A105 (VHH, tested as VHH-hinge-CH2-CH3 (human IgG1-Fc); not shown: human IgG1 hinge-CH2-CH3) VHH: EVQLVESGGGLVQAGGSLRLSCAASGRTFDRHTMTWFRQAPGKEREFVATASRIPGDTYYSHSVKGRFTISRDNAKNTVYLQLNNLKPEDTAVYYCAATSAYCSEVDCYEKGSWYDNWGQGIQVTVSS |  |  | ~1 | ~0.9 |
| SRF813-hIgG1 (antibody, V domains shown, human IgG1 format by its name) VH: QVQLVQSGAEVKKPGSSVKVSCKASGGTFSSAAISWVRQAPGQGLEWMGNIIPIVGIANYAQKFQGRVTITADESTSTAYMELSSLRSEDTAVYYCARDTGRGYTRHFWFDPWGQGTLVTVSS VL: DIQMTQSPSSLSASVGDRVTITCRASQSISSYLNWYQQKPGKAPKLLIYAASSLQSGVPSRFSGSGSGTDFTLTISSLQPEDFATYYCQQSDILYTFGGGTKVEIK |  |  | ~1 | ~0.8 |
| TIGIT-070-H1L1 (antibody, V domains shown, Humanized anti-TIGIT antibody) VH: EVQLVQSGAEVKKPGASVKVSCKASGYTFTNYYMHWVRQAPGQRLEWMGRIDPDSGGSKYNEKFKSRVTITVDKSASTAYMELSSLRSEDTAVYYCAREGHYGFYSDYWGQGTTVTVSS VL: DIQMTQSPSSLSASVGDRVTITCRVSENIYSYLAWYQQKPGKSPKLLIYNAKTLAEGVPSRFSGSGSGTDFTLTISSLQPEDFATYYCQHHYGNPLTFGPGTKVDIK | 0.502 | 0.456 |  |  |

From patent US20240343803A1 (SHANDONG SIMCERE BIOPHARMACEUTICAL, published 2024)
